No end group written: not given here.
Assays:
[1] = biological target: T1, XIAP protein containing linker-BIR2–BIR3; assay: fluorescence polarisation
T1 chain: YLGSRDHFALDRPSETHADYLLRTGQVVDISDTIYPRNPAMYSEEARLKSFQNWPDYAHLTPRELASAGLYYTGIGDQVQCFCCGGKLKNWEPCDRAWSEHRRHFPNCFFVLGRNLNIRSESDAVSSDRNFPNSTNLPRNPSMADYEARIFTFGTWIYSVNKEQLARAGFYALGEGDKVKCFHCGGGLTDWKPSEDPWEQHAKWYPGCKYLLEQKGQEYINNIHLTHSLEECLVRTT

[2] = biological target: T2, cIAP-1 BIR3 protein; assay: fluorescence polarisation
T2 chain: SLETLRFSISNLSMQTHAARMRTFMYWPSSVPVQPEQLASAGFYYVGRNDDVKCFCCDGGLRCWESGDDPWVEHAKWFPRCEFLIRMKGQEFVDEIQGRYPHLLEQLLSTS

## AKPF (also: cyclopeptidic structure not given here) [PSmac-21 (compound 1), cyclopeptidic Smac mimetic]
[1]
  IC50 site 1: 1 nM
  IC50 site 2: 481 nM
[2]
  Ki: 84 ± 9 nM

Source: publication PMC2997469 (Bioorganic & medicinal chemistry letters, 2010)
